According to patent US20140087995A1 (published 2014):
Numbered stars: 1 amine (or outer) side, 2 acyl side, 3 side chain; on linkers, the order of the positions; unused ones are H or OH. Bridge positions count the residues as written; N and C are the ends. Side chains are listed from the residue outwards. Ends that are not written are not given here. * marks the point of attachment. C20 diacid = O=C(O)CCCCCCCCCCCCCCCCCCC(=O)*; γGlu = O=C(O)[C@H](CCC(=O)[*:2])N[*:1]; AEEA = NCCOCCOCC(=O)O

T1: human calcitonin receptor (human, UniProt P30988 25-474)
T1 sequence (looked up): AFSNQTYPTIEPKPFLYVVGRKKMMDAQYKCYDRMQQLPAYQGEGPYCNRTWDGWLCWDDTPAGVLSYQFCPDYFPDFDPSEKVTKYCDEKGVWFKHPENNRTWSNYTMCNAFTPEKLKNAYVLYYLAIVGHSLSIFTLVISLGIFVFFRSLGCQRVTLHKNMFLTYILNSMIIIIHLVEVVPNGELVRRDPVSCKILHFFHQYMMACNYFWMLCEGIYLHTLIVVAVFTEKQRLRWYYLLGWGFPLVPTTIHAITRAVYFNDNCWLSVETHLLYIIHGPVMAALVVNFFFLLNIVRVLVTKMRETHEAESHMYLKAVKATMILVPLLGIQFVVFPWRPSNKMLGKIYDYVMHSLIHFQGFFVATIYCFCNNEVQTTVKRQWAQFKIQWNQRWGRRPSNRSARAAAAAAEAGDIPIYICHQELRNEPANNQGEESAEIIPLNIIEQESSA


Target: T1, human calcitonin receptor
Test: cell-based or functional assay

Binder | hCTR funct. EC50
K([AEEA-γGlu-C20 diacid])RCNTATCATQRLANFLRHSSPNFGAIPSSTNVGSHTY-NH2 (disulfide 3-8; N-terminus assumed; SMILES CC[C@H](C)[C@H](NC(=O)[C@H](C)NC(=O)CNC(=O)[C@H](Cc1ccccc1)NC(=O)[C@H](CC(N)=O)NC(=O)[C@@H]1CCCN1C(=O)[C@H](CO)NC(=O)[C@H](CO)NC(=O)[C@H](Cc1c[nH]cn1)NC(=O)[C@H](CCCNC(=N)N)NC(=O)[C@H](CC(C)C)NC(=O)[C@H](Cc1ccccc1)NC(=O)[C@H](CC(N)=O)NC(=O)[C@H](C)NC(=O)[C@H](CC(C)C)NC(=O)[C@H](CCCNC(=N)N)NC(=O)[C@H](CCC(N)=O)NC(=O)[C@@H](NC(=O)[C@H](C)NC(=O)[C@@H]1CSSC[C@H](NC(=O)[C@H](CCCNC(=N)N)NC(=O)[C@@H](N)CCCCNC(=O)COCCOCCNC(=O)CC[C@H](NC(=O)CCCCCCCCCCCCCCCCCCC(=O)O)C(=O)O)C(=O)N[C@@H](CC(N)=O)C(=O)N[C@@H]([C@@H](C)O)C(=O)N[C@@H](C)C(=O)N[C@@H]([C@@H](C)O)C(=O)N1)[C@@H](C)O)C(=O)N1CCC[C@H]1C(=O)N[C@@H](CO)C(=O)N[C@@H](CO)C(=O)N[C@H](C(=O)N[C@@H](CC(N)=O)C(=O)N[C@H](C(=O)NCC(=O)N[C@@H](CO)C(=O)N[C@@H](Cc1c[nH]cn1)C(=O)N[C@H](C(=O)N[C@@H](Cc1ccc(O)cc1)C(N)=O)[C@@H](C)O)C(C)C)[C@@H](C)O, h-amylin derivative, N-terminally extended by one residue; disulfide bridge and C-terminal amide as told for human amylin; also called compound 45) | 10.1 nM
K([γGlu-C20 diacid])RCNTATCATQRLANFLRHSSPNFGAIPSSTNVGSHTY-NH2 (disulfide 3-8; N-terminus assumed; SMILES CC[C@H](C)[C@H](NC(=O)[C@H](C)NC(=O)CNC(=O)[C@H](Cc1ccccc1)NC(=O)[C@H](CC(N)=O)NC(=O)[C@@H]1CCCN1C(=O)[C@H](CO)NC(=O)[C@H](CO)NC(=O)[C@H](Cc1c[nH]cn1)NC(=O)[C@H](CCCNC(=N)N)NC(=O)[C@H](CC(C)C)NC(=O)[C@H](Cc1ccccc1)NC(=O)[C@H](CC(N)=O)NC(=O)[C@H](C)NC(=O)[C@H](CC(C)C)NC(=O)[C@H](CCCNC(=N)N)NC(=O)[C@H](CCC(N)=O)NC(=O)[C@@H](NC(=O)[C@H](C)NC(=O)[C@@H]1CSSC[C@H](NC(=O)[C@H](CCCNC(=N)N)NC(=O)[C@@H](N)CCCCNC(=O)CC[C@H](NC(=O)CCCCCCCCCCCCCCCCCCC(=O)O)C(=O)O)C(=O)N[C@@H](CC(N)=O)C(=O)N[C@@H]([C@@H](C)O)C(=O)N[C@@H](C)C(=O)N[C@@H]([C@@H](C)O)C(=O)N1)[C@@H](C)O)C(=O)N1CCC[C@H]1C(=O)N[C@@H](CO)C(=O)N[C@@H](CO)C(=O)N[C@H](C(=O)N[C@@H](CC(N)=O)C(=O)N[C@H](C(=O)NCC(=O)N[C@@H](CO)C(=O)N[C@@H](Cc1c[nH]cn1)C(=O)N[C@H](C(=O)N[C@@H](Cc1ccc(O)cc1)C(N)=O)[C@@H](C)O)C(C)C)[C@@H](C)O, h-amylin derivative, N-terminally extended by one residue; disulfide bridge and C-terminal amide as told for human amylin; also called compound 44) | 4.75 nM
K([AEEA-C20 diacid])CNTATCATQRLANFLRHSSPNFGAIPSSTNVGSNTY-NH2 (disulfide 2-7; N-terminus assumed; SMILES CC[C@H](C)[C@H](NC(=O)[C@H](C)NC(=O)CNC(=O)[C@H](Cc1ccccc1)NC(=O)[C@H](CC(N)=O)NC(=O)[C@@H]1CCCN1C(=O)[C@H](CO)NC(=O)[C@H](CO)NC(=O)[C@H](Cc1c[nH]cn1)NC(=O)[C@H](CCCNC(=N)N)NC(=O)[C@H](CC(C)C)NC(=O)[C@H](Cc1ccccc1)NC(=O)[C@H](CC(N)=O)NC(=O)[C@H](C)NC(=O)[C@H](CC(C)C)NC(=O)[C@H](CCCNC(=N)N)NC(=O)[C@H](CCC(N)=O)NC(=O)[C@@H](NC(=O)[C@H](C)NC(=O)[C@@H]1CSSC[C@H](NC(=O)[C@@H](N)CCCCNC(=O)COCCOCCNC(=O)CCCCCCCCCCCCCCCCCCC(=O)O)C(=O)N[C@@H](CC(N)=O)C(=O)N[C@@H]([C@@H](C)O)C(=O)N[C@@H](C)C(=O)N[C@@H]([C@@H](C)O)C(=O)N1)[C@@H](C)O)C(=O)N1CCC[C@H]1C(=O)N[C@@H](CO)C(=O)N[C@@H](CO)C(=O)N[C@H](C(=O)N[C@@H](CC(N)=O)C(=O)N[C@H](C(=O)NCC(=O)N[C@@H](CO)C(=O)N[C@@H](CC(N)=O)C(=O)N[C@H](C(=O)N[C@@H](Cc1ccc(O)cc1)C(N)=O)[C@@H](C)O)C(C)C)[C@@H](C)O, h-amylin derivative; disulfide bridge and C-terminal amide as told for human amylin; also called compound 43) [N^ε1-[2-[2-[2-(19-carboxynonadecanoylamino)ethoxy]ethoxy]acetyl]-[Arg17,Pro21,Pro27]-h-amylin] | 0.92 nM

Further lines, results first:

hCTR funct. EC50 | Binder
0.899 nM | {C20 diacid-γGlu}-GRCNTATCATQRLANFLRHSSPNFGAIPSSTNVGSNTY-NH2 (disulfide 3-8; SMILES CC[C@H](C)[C@H](NC(=O)[C@H](C)NC(=O)CNC(=O)[C@H](Cc1ccccc1)NC(=O)[C@H](CC(N)=O)NC(=O)[C@@H]1CCCN1C(=O)[C@H](CO)NC(=O)[C@H](CO)NC(=O)[C@H](Cc1c[nH]cn1)NC(=O)[C@H](CCCNC(=N)N)NC(=O)[C@H](CC(C)C)NC(=O)[C@H](Cc1ccccc1)NC(=O)[C@H](CC(N)=O)NC(=O)[C@H](C)NC(=O)[C@H](CC(C)C)NC(=O)[C@H](CCCNC(=N)N)NC(=O)[C@H](CCC(N)=O)NC(=O)[C@@H](NC(=O)[C@H](C)NC(=O)[C@@H]1CSSC[C@H](NC(=O)[C@H](CCCNC(=N)N)NC(=O)CNC(=O)CC[C@H](NC(=O)CCCCCCCCCCCCCCCCCCC(=O)O)C(=O)O)C(=O)N[C@@H](CC(N)=O)C(=O)N[C@@H]([C@@H](C)O)C(=O)N[C@@H](C)C(=O)N[C@@H]([C@@H](C)O)C(=O)N1)[C@@H](C)O)C(=O)N1CCC[C@H]1C(=O)N[C@@H](CO)C(=O)N[C@@H](CO)C(=O)N[C@H](C(=O)N[C@@H](CC(N)=O)C(=O)N[C@H](C(=O)NCC(=O)N[C@@H](CO)C(=O)N[C@@H](CC(N)=O)C(=O)N[C@H](C(=O)N[C@@H](Cc1ccc(O)cc1)C(N)=O)[C@@H](C)O)C(C)C)[C@@H](C)O, h-amylin derivative, N-terminally extended by one residue; disulfide bridge and C-terminal amide as told for human amylin; also called compound 46) [N^-1-[(4S)-4-carboxy-4-(19-carboxynonadecanoylamino)butanoyl]-Gly[Arg1,Arg17,Pro21,Pro27]-h-amylin]
1.97 nM | K([γGlu-C20 diacid])CNTATCATQRLANFLRHSSPNFGAIPSSTNVGSNTY-NH2 (disulfide 2-7; N-terminus assumed; SMILES CC[C@H](C)[C@H](NC(=O)[C@H](C)NC(=O)CNC(=O)[C@H](Cc1ccccc1)NC(=O)[C@H](CC(N)=O)NC(=O)[C@@H]1CCCN1C(=O)[C@H](CO)NC(=O)[C@H](CO)NC(=O)[C@H](Cc1c[nH]cn1)NC(=O)[C@H](CCCNC(=N)N)NC(=O)[C@H](CC(C)C)NC(=O)[C@H](Cc1ccccc1)NC(=O)[C@H](CC(N)=O)NC(=O)[C@H](C)NC(=O)[C@H](CC(C)C)NC(=O)[C@H](CCCNC(=N)N)NC(=O)[C@H](CCC(N)=O)NC(=O)[C@@H](NC(=O)[C@H](C)NC(=O)[C@@H]1CSSC[C@H](NC(=O)[C@@H](N)CCCCNC(=O)CC[C@H](NC(=O)CCCCCCCCCCCCCCCCCCC(=O)O)C(=O)O)C(=O)N[C@@H](CC(N)=O)C(=O)N[C@@H]([C@@H](C)O)C(=O)N[C@@H](C)C(=O)N[C@@H]([C@@H](C)O)C(=O)N1)[C@@H](C)O)C(=O)N1CCC[C@H]1C(=O)N[C@@H](CO)C(=O)N[C@@H](CO)C(=O)N[C@H](C(=O)N[C@@H](CC(N)=O)C(=O)N[C@H](C(=O)NCC(=O)N[C@@H](CO)C(=O)N[C@@H](CC(N)=O)C(=O)N[C@H](C(=O)N[C@@H](Cc1ccc(O)cc1)C(N)=O)[C@@H](C)O)C(C)C)[C@@H](C)O, h-amylin derivative; disulfide bridge and C-terminal amide as told for human amylin; also called compound 48) [N^ε1-[(4S)-4-carboxy-4-(19-carboxynonadecanoylamino)butanoyl]-[Arg17,Pro21,Pro27]-h-amylin]
